Here are results for two molecules from publication doi:10.1101/2025.10.04.680454.

What is called Kd is a measure of binding affinity in units of concentration.

Some results are limits rather than exact numbers.

The target in assay [1] is Mb-1 (parental minibinder), N-terminal polyhistidine tag. Briefly: SPR. Background: Surface plasmon resonance follows binding to a sensor surface in real time, without labels.
For assay [2], the target named is evolved Mb-1 (affinity matured variant), N-terminal polyhistidine tag. Briefly: SPR.
For assay [3], the target named is Mb-4 (parental minibinder), N-terminal polyhistidine tag. In words: SPR.
Assay [4] addresses all four evolved minibinders (purified proteins). In words: SPR.
Assay [5] deals with Mb-1 P29S displayed on the yeast cell surface (minibinder-HA-AGA2). In words: flow cytometry on cells. On the technique in general: Flow cytometry measures light scatter and fluorescence of single cells or particles in a stream.
In assay [6] the target is Mb-1 A14V displayed on the yeast cell surface (minibinder-HA-AGA2). Briefly: flow cytometry on cells.

B1: human IL-7Rα extracellular domain (residues 37-231) with a C-terminal C-tag (domain or fragment)
chain: DYSFSCYSQLEVNGSQHSLTCAFEDPDVNITNLEFEICGALVEVKCLNFRKLQEIYFIETKKFLLIGKSNICVKVGEKSLTCKKIDLTTIVKPEAPFDLSVVYREGANDFVVTFNTSHLQKKYVKVLMHDVAYRQEKDENKWTHVNLSSTKLTLLQRKLQPAAMYEIKVRSIPDHYFKGFWSEWSPSYYFRTPEI
With B1, the Kd in assay [1] is > 1000 nM; in assay [2], 2.1 nM; in assay [3], 7.8 nM; in assay [4] it was 0.56 to 34 nM.

B2: human IL-7Rα fused to a human IgG single-chain Fc tag (Fc fusion)
chain: ESGYAQNGDLEDAELDDYSFSCYSQLEVNGSQHSLTCAFEDPDVNITNLEFEICGALVEVKCLNFRKLQEIYFIETKKFLLIGKSNICVKVGEKSLTCKKIDLTTIVKPEAPFDLSVVYREGANDFVVTFNTSHLQKKYVKVLMHDVAYRQEKDENKWTHVNLSSTKLTLLQRKLQPAAMYEIKVRSIPDHYFKGFWSEWSPSYYFRTPEINNSSGEMD
Turning to B2, the Δ-log10[KD] against parental Mb-1 in assay [5] was found to be 0.03; in assay [6] it was 1.18.
